Starred links: 1 amine or outer side, 2 acyl side, 3 side chain; linkers in the order of their positions; H or OH if unused. Positions of bridges follow the written chain, without caps; N, C: chain ends. Non-standard residues stand in square brackets, D forms with d. Primed or numbered codes have the meaning given here. *: point of attachment. PyrS2″ = (S)-3-amino-1-((pent-4-en-1-yloxy)carbonyl)pyrrolidine-3-carboxylic acid (stapling residue), C=CCCCOC(=O)N1CC[C@@](N[*:1])(C(=O)[*:2])C1; B5(18) = 2,2-bis(4-pentenyl)glycine (2-amino-2-(pent-4-en-1-yl)hept-6-enoic acid), stitching residue, C=CCCCC(CCCC=C)(N[*:1])C(=O)[*:2]; TfeGA = (S)-2-amino-3-((carboxymethyl)(2,2,2-trifluoroethyl)amino)propanoic acid, O=C([C@H](CN(CC(=O)[*:3])CC(F)(F)F)N[*:1])[*:2]; PyrS2 = (S)-3-amino-1-((pent-4-en-1-yloxy)carbonyl)pyrrolidine-3-carboxylic acid, C=CCCCOC(=O)N1CC[C@@](N[*:1])(C(=O)[*:2])C1; B5(3) = 2,2-bis(4-pentenyl)glycine (stitching residue), C=CCCCC(CCCC=C)(N[*:1])C(=O)[*:2]; Me3AdamantC = 3,5,7-trimethyladamantane-1-carbonyl, CC12CC3(C)CC(C)(C1)CC(C(=O)*)(C2)C3; B5(28) = 2,2-bis(4-pentenyl)glycine, C=CCCCC(CCCC=C)(N[*:1])C(=O)[*:2]; Phe(3-CF3) = N[C@@H](Cc1cccc(C(F)(F)F)c1)C(=O)O; 2F3MeF = Cc1cccc(C[C@H](N[*:1])C(=O)[*:2])c1F; Phe(2-CF3) = N[C@@H](Cc1ccccc1C(F)(F)F)C(=O)O; Phe(3-Cl) = N[C@@H](Cc1cccc(Cl)c1)C(=O)O; Phe(3-OMe) = COc1cccc(C[C@H](N)C(=O)O)c1; Phe(2-Br) = N[C@@H](Cc1ccccc1Br)C(=O)O; Phe(2-Cl) = N[C@@H](Cc1ccccc1Cl)C(=O)O; 2Nal = N[C@@H](Cc1ccc2ccccc2c1)C(=O)O; Bta = N[C@@H](Cc1csc2ccccc12)C(=O)O; αAllylPro = C=CC[C@@]1(C(=O)O)CCCN1; tBuAla = CC(C)(C)C[C@H](N)C(=O)O; 3Thi = N[C@@H](Cc1ccsc1)C(=O)O; Cha = N[C@@H](CC1CCCCC1)C(=O)O; S8 = C=CCCCCCC[C@](C)(N)C(=O)O; AdamantC = not defined here; PyrS2(4) = not defined here; TfeGA″ = not defined here; Octanoyl = CCCCCCCC(=O)*; Butyryl = CCCC(=O)*
T1: B-cat-Halo (UniProt P35222 1-781, HaloTag NanoBRET 618 Ligand bound to the HaloTag in the assay)
T1 sequence (looked up): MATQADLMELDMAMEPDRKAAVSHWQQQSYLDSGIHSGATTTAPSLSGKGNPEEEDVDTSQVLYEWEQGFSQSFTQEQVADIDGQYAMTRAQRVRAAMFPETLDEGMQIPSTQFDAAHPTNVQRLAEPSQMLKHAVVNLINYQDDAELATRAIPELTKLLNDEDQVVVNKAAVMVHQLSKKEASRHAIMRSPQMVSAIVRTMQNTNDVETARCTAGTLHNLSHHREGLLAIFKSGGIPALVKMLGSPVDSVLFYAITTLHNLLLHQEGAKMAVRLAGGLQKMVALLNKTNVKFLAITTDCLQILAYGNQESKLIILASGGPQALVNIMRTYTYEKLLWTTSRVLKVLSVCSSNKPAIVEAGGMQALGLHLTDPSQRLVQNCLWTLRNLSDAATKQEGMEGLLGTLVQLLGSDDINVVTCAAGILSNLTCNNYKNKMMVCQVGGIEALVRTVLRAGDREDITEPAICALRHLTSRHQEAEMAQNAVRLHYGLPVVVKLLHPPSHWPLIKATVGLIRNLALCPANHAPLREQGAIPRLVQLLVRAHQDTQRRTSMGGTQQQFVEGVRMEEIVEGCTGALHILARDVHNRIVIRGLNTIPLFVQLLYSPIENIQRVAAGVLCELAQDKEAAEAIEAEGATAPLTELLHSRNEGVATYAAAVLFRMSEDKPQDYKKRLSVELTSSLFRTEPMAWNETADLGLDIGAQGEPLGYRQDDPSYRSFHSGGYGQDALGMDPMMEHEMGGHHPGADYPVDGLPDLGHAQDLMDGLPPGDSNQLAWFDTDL

T2: B-cat-Halo (UniProt P35222 1-781)
T2 sequence (looked up): T1 sequence (looked up)

T3: B-cat-Halo (UniProt P35222 1-781)
T3 sequence (looked up): T1 sequence (looked up)

B1: I-916 (peptide)
peptide: Ac-[αAllylPro]D[tBuAla][B5(3)]DDAAFN[PyrS2(4)][3Thi][Bta]QK(1Napc)-NH2
modifications: staple 1-4, 4-11; reading uncertain; also: printed as Ac-PL3-Asp-Npg-B5-Asp-Asp-Ala-Ala-Phe-Asn-PyrS2-3Thi-BztA-Gln-[1Napc]Lys-NH2
B2: I-919 (peptide)
peptide: Ac-[αAllylPro]D[tBuAla][B5(3)]DDAAFN[PyrS2(4)][3Thi][Bta]QK(AdamantC)-NH2
modifications: staple 1-4, 4-11; reading uncertain; also: printed as Ac-PL3-Asp-Npg-B5-Asp-Asp-Ala-Ala-Phe-Asn-PyrS2-3Thi-BztA-Gln-[AdamantC]Lys-NH2
B3: I-918 (peptide)
peptide: Ac-[αAllylPro]D[tBuAla][B5(3)]DDAAFN[PyrS2″][3Thi][Bta]QK(Octanoyl)-NH2
modifications: staple 1-4, 4-11; not fully specified; printed as Ac-PL3-Asp-Npg-B5-Asp-Asp-Ala-Ala-Phe-Asn-PyrS2-3Thi-BztA-Gln-[Oct]Lys-NH2
B4: I-927 (peptide)
peptide: Ac-[αAllylPro]D[tBuAla][B5(3)]D[TfeGA″]AAFN[PyrS2(4)][2F3MeF][Bta]Q-NH2
modifications: staple 1-4, 4-11; reading uncertain; also: staple stereoisomer, earlier-eluting HPLC peak
B5: I-1120 (peptide)
peptide: Ac-[αAllylPro]D[Cha][B5(3)]DDAAFS[PyrS2″][Phe(2-Cl)][Bta]Q-NH2
modifications: staple 1-4, 4-11 (inferred); not fully specified (residue 9); printed as Ac-PL3-Asp-Cha-B5-Asp-Asp-Ala-Ala-4F3MeF-Ser-PyrS2-2C1F-BztA-Gln-NH2

The binders below were run against T1, B-cat-Halo (assay: cell-based or functional assay).

NanoBRET Abs IC50 | Binder
13.6 µM | B1
2.7 µM | Ac-[αAllylPro]D[tBuAla][B5(28)]D[TfeGA″]AAFT[PyrS2][Phe(2-Cl)][Bta]Q-NH2 (staple 1-4, 4-11; reading uncertain) [I-922]
6 µM | Ac-[αAllylPro]D[tBuAla][B5(3)]D[TfeGA]AAFF[PyrS2″][Phe(2-Cl)][Bta]Q-NH2 (staple 1-4, 4-11) [I-923]
29.9 µM | Ac-[αAllylPro]D[tBuAla][B5(3)]D[TfeGA]AAFN[PyrS2″][Phe(3-Cl)][Bta]Q-NH2 (staple 1-4, 4-11; not fully specified) [I-926]
20 µM | Ac-[αAllylPro]D[tBuAla][B5(3)]D[TfeGA]AAFN[PyrS2″][Phe(3-Cl)][Bta]Q-NH2 (staple 1-4, 4-11; not fully specified) [I-925]
15.2 µM | B2
3.3 µM | Ac-[αAllylPro]D[tBuAla][B5(3)]D[TfeGA]AAFN[PyrS2″][Phe(2-Br)][Bta]Q-NH2 (staple 1-4, 4-11) [I-924]
17.7 µM | Ac-[αAllylPro]D[tBuAla][B5(3)]DDAAFN[PyrS2″][3Thi][Bta]QK(Me3AdamantC)-NH2 (staple 1-4, 4-11) [I-920]
19.7 µM | Ac-[αAllylPro]D[tBuAla][B5(3)]DDAAFN[PyrS2″][3Thi][Bta]QK(Butyryl)-NH2 (staple 1-4, 4-11) [I-917]
11.1 µM | B3
6.1 µM | Ac-[αAllylPro]D[tBuAla][B5(3)]D[TfeGA]AAFN[PyrS2″][Phe(2-CF3)][Bta]Q-NH2 (staple 1-4, 4-11; not fully specified) [I-928]
8.2 µM | B4
10.3 µM | Ac-[αAllylPro]D[tBuAla][B5(3)]D[TfeGA]AAFN[S8][Phe(2-Cl)][Bta]Q-NH2 (staple 1-4, 4-11) [I-929]

What follows are binders tested against T2, B-cat-Halo (assay: cell-based or functional assay).

NanoBRET Abs IC50 | Binder
20.8 µM | Ac-[αAllylPro]D[tBuAla][B5(18)]D[TfeGA]KAFN[PyrS2″][Phe(2-Cl)][Bta]Q-NH2 (staple 1-4, 4-11) [I-1011]
29.8 µM | Ac-[αAllylPro]D[tBuAla][B5(18)]D[TfeGA]ALFN[PyrS2″][Phe(2-Cl)][Bta]Q-NH2 (staple 1-4, 4-11) [I-1002]
12.4 µM | Ac-[αAllylPro]D[tBuAla][B5(18)]DDAAFT[PyrS2″][Phe(2-Cl)][Bta]Q-NH2 (staple 1-4, 4-11) [I-1013]
21.4 µM | Ac-[αAllylPro]D[tBuAla][B5(18)]DNAAFT[PyrS2″][Phe(2-Cl)][Bta]S-NH2 (staple 1-4, 4-11) [I-1016]
13.3 µM | Ac-[αAllylPro]D[tBuAla][B5(18)]D[TfeGA]IAFN[PyrS2″][Phe(2-Cl)][Bta]Q-NH2 (staple 1-4, 4-11) [I-1010]
14.3 µM | Ac-[αAllylPro]D[tBuAla][B5(18)]DNAAFT[PyrS2″][Phe(2-Cl)][Bta]Q-NH2 (staple 1-4, 4-11) [I-1014]
> 20 µM | Ac-[αAllylPro]D[tBuAla][B5(18)]D[TfeGA]AKFN[PyrS2″][Phe(2-Cl)][Bta]Q-NH2 (staple 1-4, 4-11) [I-1006]
25.8 µM | Ac-[αAllylPro]D[tBuAla][B5(18)]DNAAFS[PyrS2″][Phe(2-Cl)][Bta]Q-NH2 (staple 1-4, 4-11) [I-1018]
24.9 µM | Ac-[αAllylPro]D[tBuAla][B5(18)]D[TfeGA]LAFN[PyrS2″][Phe(2-Cl)][Bta]Q-NH2 (staple 1-4, 4-11) [I-1007]
8.9 µM | Ac-[αAllylPro]D[tBuAla][B5(18)]DDAAFS[PyrS2″][Phe(2-Cl)][Bta]Q-NH2 (staple 1-4, 4-11) [I-1017]
33.3 µM | Ac-[αAllylPro]D[tBuAla][B5(18)]D[TfeGA″]SAFN[PyrS2″][Phe(2-Cl)][Bta]Q-NH2 (staple 1-4, 4-11; reading uncertain) [I-1009]
10.6 µM | Ac-[αAllylPro]D[tBuAla][B5(18)]D[TfeGA]ASFN[PyrS2″][Phe(2-Cl)][Bta]Q-NH2 (staple 1-4, 4-11) [I-1004]

The binders below were run against T3, B-cat-Halo (assay: cell-based or functional assay).

NanoBRET Abs IC50 | Binder
24.3 µM | Ac-[αAllylPro]D[2Nal][B5(3)]DDAAFT[PyrS2″][2C1F][Bta]S-NH2 (staple 1-4, 4-11) [I-1115]
12.3 µM | Ac-[αAllylPro]D[tBuAla][B5(3)]DDAA[Phe(3-CF3)]L[PyrS2″][Phe(2-Cl)][Bta]Q-NH2 (staple 1-4, 4-11 (inferred)) [I-1122]
9.2 µM | Ac-[αAllylPro]D[tBuAla][B5(3)]DDAA[Phe(3-OMe)]L[PyrS2″][Phe(2-Cl)][Bta]Q-NH2 (staple 1-4, 4-11 (inferred)) [I-1121]
29.5 µM | Ac-[αAllylPro]D[Cha][B5(3)]DDAA[Phe(3-OMe)]S[PyrS2″][Phe(2-Cl)][Bta]Q-NH2 (staple 1-4, 4-11 (inferred)) [I-1118]
> 20 µM | B5
19.4 µM | Ac-[αAllylPro]D[Cha][B5(3)]DDAA[Phe(3-CF3)]S[PyrS2″][Phe(2-Cl)][Bta]Q-NH2 (staple 1-4, 4-11 (inferred)) [I-1119]

Reference: patent US20240116985A1 (published 2024)
